Measured values reported in article PMC9901172.
pKd: −log10 of the molar value.

Legend:
[1] = molecular target: Imp9•XFD488-H2A-H2B complex (human | frog) (UniProt Q96P70); assay: fluorescence polarisation
[2] = molecular target: Kap114•XFD488-H2A-H2B complex (yeast | frog) (UniProt P53067); assay: fluorescence polarisation

Substance: yeast RanGTP (Saccharomyces cerevisiae Gsp1 residues 1-179 with Q71L) (from UniProt P32835 1-179) (domain or fragment)
- pKd [1]: 6.82
- pKd [2]: 6.57
